Where a chain is given by its changes, count along the chain named. Where no end group is shown, it is not given here. The star is where a group is joined. FITC = O=C1OC2(c3ccc(O)cc3Oc3cc(O)ccc32)c2ccc(NC(=S)*)cc21

For four molecules, binding result and Kd results are on record in article PMC2631437 (Molecular microbiology, 2008).

The target of data set [1] is T1, MotA, full length (wild type) (bacteriophage T4, UniProt P22915 1-211).
T1 sequence (looked up): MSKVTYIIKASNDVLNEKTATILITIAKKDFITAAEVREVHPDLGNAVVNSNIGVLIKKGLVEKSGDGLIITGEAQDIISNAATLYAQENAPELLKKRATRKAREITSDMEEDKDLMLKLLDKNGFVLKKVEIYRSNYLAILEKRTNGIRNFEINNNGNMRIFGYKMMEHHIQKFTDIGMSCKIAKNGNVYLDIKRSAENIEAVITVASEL
In words: NMR titration.

For data set [2], the target named is T2, MotA K28E, full length (bacteriophage T4, UniProt P22915 1-211, K28E).
T2 sequence (looked up): T1 sequence (looked up) with K28E
In words: fluorescence polarisation.

Data set [3] has as its target T1, MotA, full length (wild type). Nature of the data set: fluorescence polarisation.
The target in data set [4] is T3, MotA D43K, full length (bacteriophage T4, UniProt P22915 1-211, D43K).
T3 sequence (looked up): T1 sequence (looked up) with D43K
Nature of the data set: fluorescence polarisation.

Data set [5] has as its target T4, MotA K59E, full length (bacteriophage T4, UniProt P22915 1-211, K59E).
T4 sequence (looked up): T1 sequence (looked up) with K59E
Nature of the data set: fluorescence polarisation.

The target in data set [6] is T5, MotA K3E, full length (bacteriophage T4, UniProt P22915 1-211, K3E).
T5 sequence (looked up): T1 sequence (looked up) with K3E
In words: fluorescence polarisation.

Data set [7] concerns the target T6, MotA Q76R, full length (bacteriophage T4, UniProt P22915 1-211, Q76R).
T6 sequence (looked up): T1 sequence (looked up) with Q76R
Nature of the data set: fluorescence polarisation.

Data set [8] deals with T7, MotA D67K, full length (bacteriophage T4, UniProt P22915 1-211, D67K).
T7 sequence (looked up): T1 sequence (looked up) with D67K
In words: fluorescence polarisation.

Data set [9] addresses T8, MotA S80R, full length (bacteriophage T4, UniProt P22915 1-211, S80R).
T8 sequence (looked up): T1 sequence (looked up) with S80R
Nature of the data set: fluorescence polarisation.

Data set [10] concerns the target T9, AsiA (bacteriophage T4, UniProt P32267 1-90).
T9 sequence (looked up): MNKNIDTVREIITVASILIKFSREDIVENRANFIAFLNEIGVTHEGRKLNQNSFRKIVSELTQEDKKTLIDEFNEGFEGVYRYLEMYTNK
In words: NMR titration.

The target of data set [11] is T10, MotA wild type (bacteriophage T4, UniProt P22915 1-211).
T10 sequence: T1 sequence (looked up)
Nature of the data set: EMSA.

B1: AsiA/σ4 complex (preformed binary complex of AsiA and σ^70 region 4, residues 533 to 613) (complex, bacteriophage T4 | E. coli)
chain 1: T9 sequence (looked up)
chain 2: DSATTESLRAATHDVLAGLTAREAKVLRMRFGIDMNTDYTLEEVGKQFDVTRERIRQIEAKALRKLRHPSRSEVLRSFLDD
With B1, the binding result in data set [1] was “binds”.

As for {FITC}-PSRSEVLRSFLDD (peptide, UniProt P00579 601-613, looked up) [fluorescein-tagged σ4-H5 peptide (σ^70 residues 601-613)], the Kd is above 300 µM in [2]; 15.9 ± 1.3 µM in [3]; 12 ± 1 µM in data set [4]; 10 ± 1 µM in [5]; above 300 µM in data set [6]; 39.1 ± 5 µM in data set [7]. Further, the Kd came to 24.3 ± 0.1 µM in [8] and 44.7 ± 5 µM in data set [9].

B2: σ4 (σ^70 region 4, residues 533 to 613) (domain or fragment, E. coli, UniProt P00579 533-613, looked up)
chain: B1 chain 2
With B2, the binding result in data set [1] and in data set [10] was “binds” in each case.

B3: 21 bp MotA box DNA (dsDNA)
DNA 1: GAATTATTTGCTTTAGATTAC
DNA 2: GTAATCTAAAGCAAATAATTC
The molecule B3 returned a Kd in [11] of around 0.6 µM.
